Measurements: patent CN117164676A (UNIV XIAMEN; BEIJING WANTAI BIOLOGICAL PHARMACY ENTPR CO LTD, dated 2023)

T1: 不含表位肽的载体蛋白(HBcAg) C149
T1 construct: also called 载体蛋白C149; 突变型HBc
T1 chain: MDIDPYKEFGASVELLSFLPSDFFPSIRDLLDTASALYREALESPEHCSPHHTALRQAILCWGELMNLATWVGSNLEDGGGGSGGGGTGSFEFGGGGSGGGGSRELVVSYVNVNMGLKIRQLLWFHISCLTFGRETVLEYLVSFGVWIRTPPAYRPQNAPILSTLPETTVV

T2: 水痘-带状疱疹病毒(VZV) pOka毒株ORF9蛋白 (Varicella-Zoster Virus, pOka毒株, UniProt P09272 1-302)
T2 sequence: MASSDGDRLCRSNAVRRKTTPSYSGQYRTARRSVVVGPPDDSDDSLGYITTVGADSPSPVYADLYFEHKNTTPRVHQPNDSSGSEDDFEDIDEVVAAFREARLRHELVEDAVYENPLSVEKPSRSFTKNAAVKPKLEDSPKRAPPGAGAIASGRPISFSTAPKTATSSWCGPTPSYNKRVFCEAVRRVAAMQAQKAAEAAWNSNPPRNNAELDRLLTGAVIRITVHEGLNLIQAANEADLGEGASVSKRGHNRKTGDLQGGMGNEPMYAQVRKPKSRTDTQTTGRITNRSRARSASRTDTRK

T3: VZV-ORF9-肽12 (Varicella-Zoster Virus, pOka毒株)
T3 construct: Synthetic 20-mer of ORF9; also called 121-140aa
T3 peptide: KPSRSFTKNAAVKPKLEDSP

T4: 融合蛋白VZV-ORF9-F3
T4 chain: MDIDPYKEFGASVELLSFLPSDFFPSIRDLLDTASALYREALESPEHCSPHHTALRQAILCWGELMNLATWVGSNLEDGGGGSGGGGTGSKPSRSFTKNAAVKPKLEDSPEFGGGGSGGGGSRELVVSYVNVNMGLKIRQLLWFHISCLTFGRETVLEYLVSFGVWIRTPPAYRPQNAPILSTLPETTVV

T5: VZV-ORF9-肽11 (Varicella-Zoster Virus, pOka毒株)
T5 construct: Synthetic 20-mer of ORF9; also called 111-130aa
T5 peptide: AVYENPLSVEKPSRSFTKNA

T6: 融合蛋白VZV-ORF9-F2-3
T6 chain: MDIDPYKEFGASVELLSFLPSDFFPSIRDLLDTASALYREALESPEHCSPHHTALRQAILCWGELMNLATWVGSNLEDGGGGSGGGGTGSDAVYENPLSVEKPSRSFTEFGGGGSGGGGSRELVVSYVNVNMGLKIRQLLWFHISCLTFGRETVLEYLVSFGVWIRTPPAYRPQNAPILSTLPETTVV

T7: 融合蛋白VZV-ORF9-F2-2
T7 chain: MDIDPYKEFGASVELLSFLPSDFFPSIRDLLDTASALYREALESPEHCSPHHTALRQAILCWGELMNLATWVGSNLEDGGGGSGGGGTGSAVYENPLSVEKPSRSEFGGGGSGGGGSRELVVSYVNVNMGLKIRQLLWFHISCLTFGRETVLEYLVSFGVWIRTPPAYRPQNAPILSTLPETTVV

T8: 融合蛋白VZV-ORF9-F2-7
T8 chain: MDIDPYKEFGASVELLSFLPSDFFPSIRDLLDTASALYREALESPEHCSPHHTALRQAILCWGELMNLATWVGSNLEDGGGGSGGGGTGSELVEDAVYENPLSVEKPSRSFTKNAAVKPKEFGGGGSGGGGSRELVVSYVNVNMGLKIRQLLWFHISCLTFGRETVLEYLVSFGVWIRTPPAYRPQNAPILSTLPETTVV

T9: 融合蛋白VZV-ORF9-F2-1
T9 chain: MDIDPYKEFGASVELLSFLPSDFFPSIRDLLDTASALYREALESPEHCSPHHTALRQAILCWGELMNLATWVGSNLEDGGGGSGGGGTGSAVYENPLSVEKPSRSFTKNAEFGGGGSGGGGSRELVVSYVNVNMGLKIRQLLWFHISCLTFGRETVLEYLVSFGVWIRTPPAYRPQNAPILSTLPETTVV

T10: 融合蛋白VZV-ORF9-F2-8
T10 chain: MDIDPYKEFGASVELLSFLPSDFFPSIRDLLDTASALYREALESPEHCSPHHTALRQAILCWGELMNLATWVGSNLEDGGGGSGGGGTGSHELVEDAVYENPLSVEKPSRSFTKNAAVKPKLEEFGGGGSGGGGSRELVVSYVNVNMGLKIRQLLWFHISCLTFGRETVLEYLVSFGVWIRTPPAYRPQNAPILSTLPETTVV

T11: 融合蛋白VZV-ORF9-F2-4
T11 chain: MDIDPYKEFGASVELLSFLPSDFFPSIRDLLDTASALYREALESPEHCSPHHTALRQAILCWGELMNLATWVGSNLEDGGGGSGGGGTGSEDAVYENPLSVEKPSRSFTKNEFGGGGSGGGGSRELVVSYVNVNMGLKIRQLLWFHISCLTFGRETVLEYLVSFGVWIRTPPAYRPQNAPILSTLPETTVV

T12: 融合蛋白VZV-ORF9-F2-5
T12 chain: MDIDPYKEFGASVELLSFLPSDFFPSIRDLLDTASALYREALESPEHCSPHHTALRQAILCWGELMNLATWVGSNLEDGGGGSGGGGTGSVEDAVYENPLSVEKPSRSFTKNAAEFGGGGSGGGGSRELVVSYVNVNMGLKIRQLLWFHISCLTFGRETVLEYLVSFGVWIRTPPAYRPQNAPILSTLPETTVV

T13: 融合蛋白VZV-ORF9-F2-6
T13 chain: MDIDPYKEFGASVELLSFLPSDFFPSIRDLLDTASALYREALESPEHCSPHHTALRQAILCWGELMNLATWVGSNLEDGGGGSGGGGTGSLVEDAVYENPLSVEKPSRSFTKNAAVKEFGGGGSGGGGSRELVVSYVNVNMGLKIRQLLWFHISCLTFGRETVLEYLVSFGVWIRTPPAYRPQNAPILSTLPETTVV

T14: VZV-ORF9-肽9 (Varicella-Zoster Virus, pOka毒株)
T14 construct: Synthetic 20-mer of ORF9; also called 91-110aa
T14 peptide: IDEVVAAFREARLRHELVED

T15: 融合蛋白VZV-ORF9-F1
T15 construct: Expressed in E. coli, forms virus-like particles; Run on SDS-PAGE for the Western blot
T15 chain: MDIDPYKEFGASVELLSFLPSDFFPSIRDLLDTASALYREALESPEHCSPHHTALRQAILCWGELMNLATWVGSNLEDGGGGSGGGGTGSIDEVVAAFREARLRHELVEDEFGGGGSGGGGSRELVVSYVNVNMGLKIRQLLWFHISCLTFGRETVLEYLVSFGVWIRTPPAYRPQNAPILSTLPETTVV


Assays:
[1] = molecular target: T1, 不含表位肽的载体蛋白(HBcAg) C149; assay: Western blot
[2] = molecular target: T2, 水痘-带状疱疹病毒(VZV) pOka毒株ORF9蛋白; assay: cell-based or functional assay
[3] = molecular target: T3, VZV-ORF9-肽12; assay: indirect ELISA, peptide coated at 1μg/孔
[4] = molecular target: T4, 融合蛋白VZV-ORF9-F3; assay: Western blot, antibody at 2μg/mL
[5] = molecular target: T5, VZV-ORF9-肽11; assay: indirect ELISA, peptide coated at 1μg/孔
[6] = molecular target: T6, 融合蛋白VZV-ORF9-F2-3; assay: Western blot, antibody at 2μg/mL
[7] = molecular target: T7, 融合蛋白VZV-ORF9-F2-2; assay: Western blot, antibody at 2μg/mL
[8] = molecular target: T8, 融合蛋白VZV-ORF9-F2-7; assay: Western blot, antibody at 2μg/mL
[9] = molecular target: T9, 融合蛋白VZV-ORF9-F2-1; assay: Western blot, antibody at 2μg/mL
[10] = molecular target: T10, 融合蛋白VZV-ORF9-F2-8; assay: Western blot, antibody at 2μg/mL
[11] = molecular target: T11, 融合蛋白VZV-ORF9-F2-4; assay: Western blot, antibody at 2μg/mL
[12] = molecular target: T12, 融合蛋白VZV-ORF9-F2-5; assay: Western blot, antibody at 2μg/mL
[13] = molecular target: T13, 融合蛋白VZV-ORF9-F2-6; assay: Western blot, antibody at 2μg/mL
[14] = molecular target: T14, VZV-ORF9-肽9; assay: indirect ELISA, peptide coated at 1μg/孔
[15] = molecular target: T15, 融合蛋白VZV-ORF9-F1; assay: Western blot, antibody at 2μg/mL

Binder | binding result [1] | 中和效价 (ELISPOT中和实验, VZV pOka, ARPE-19细胞) [2] | binding result [3] | binding result [4] | binding result [5] | binding result [6] | binding result [7] | binding result [8] | binding result [9] | binding result [10] | binding result [11] | binding result [12] | binding result [13] | binding result [14] | binding result [15]
抗VZV ORF9中和性单克隆抗体13A7 (antibody, IgG1, V domains shown, also called 单抗13A7) VH: QVQLQQSGAVLARPGASVKLSCKASGYTFTTYWVQWIKQRPGQGLEWIGTIYPGDGDARYAQKFKGKATLTATESSSTAYMQLSSLASEDSAVYYCSRREVYDDYAWFAYWGQGTLVTVSA VL: QIVLSQSPAILSASPGEKVTMTCRASSSVHYMHWYQQKSGFSPKPWIYATSNLASGVPARFSGSESGTSYSLTISRVEAEDAATYFCQQWSTSPPTFGSGTKLEIK | no binding (tested: 2μg/mL) | 16 dilution 1:x of the 1 mg/mL stock | binds | binds | – | – | – | – | – | – | – | – | – | – | –
抗VZV ORF9中和性单克隆抗体4E8 (antibody, IgG1, V domains shown, also called 单抗4E8) VH: QVQLQQSGPELVKPGASVKMSCKTSGYTFTDDVISWVKQRTGQGLEWIGEINPGSGSIYYNEKFKGKATLTADKSSTTAYMQLSSLTSEDSAVYFCARSQYWGQGTTLTVSS VL: DVVMTQTPLSLPVSLGDQASISCRSSQSLVHSNGNTYLHWYLQKPGQSPKLLIYKVSNRFSGVPDRFSGSGSGTDFTLKISRVEAEDLGVYFCSQSTHVPLTFGAGTKLELK | no binding (tested: 2μg/mL) | 32 dilution 1:x of the 1 mg/mL stock | – | – | binds | binds | binds | binds | binds | binds | binds | binds | binds | – | –
抗VZV ORF9中和性单克隆抗体4E9 (antibody, IgG1, V domains shown, also called 单抗4E9) VH: QVQLQQSGAELMKPGASVKISCKATGYTFSRYWIEWVKLRPGHGLDWIGEILPGSKTNYNEKFKGKATFTADTSSNTAYMQLSSLTSEDSAVYYCAREGFVYWGQGTLVTVSA VL: DIKMTQSPSSMYASLGERVTITCKASQDINSYLSWLQQKPGKSPKTLIYRANRLVDGVPSRFSGSGSGQDYSLTISSLEYEDMGIYYCLQFDEFPYTFGGGTKLEI | no binding (tested: 2μg/mL) | 16 dilution 1:x of the 1 mg/mL stock | – | – | – | – | – | – | – | – | – | – | – | binds | binds
